# ± gives the uncertainty stated by the source.
# Assay: amyloid nucleation score (Sup35N fusion, yeast selection) (log enrichment); library NNK2; higher = more nucleation; inactive = no reads after selection
# How it was run: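 The nucleation score is a DiMSum log enrichment of output over input reads, centred on the mode score of non-aggregating sequences. Sequences under 100 input reads were excluded, and reads came from Illumina sequencing of plasmid inserts. Psi-negative yeast expressing Sup35N fused to peptides of 20 random codons were induced with 100 μM copper sulfate for 24 hours and grown 7 days at 30°C on medium lacking adenine and uracil. Random libraries had three technical output replicates.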
row,Substance,amyloid nucleation score
1,GALRGGVTRLQILRCFFYFW,0.491 ± 0.74
2,YVVKWPCGLTPCALPTPIRQ,0.969 ± 0.21
3,EAYLDCYRLLFWFLFM,inactive
4,CEEAVSIGLKGYEHVEKSAP,-0.313 ± 0.76
5,PNDHNQLQGPMLSLPPVKQV,-0.359 ± 0.41
6,LLISSLLTSDLLGPSSSVMD,1.51 ± 0.58
7,SVYENYRVTISLSRSSITSC,-1.1 ± 0.61
8,IFFLPVTCTWGTQWRL,1.56 ± 0.15
9,YRLAFKMRNHGYQVELGLSV,-0.088 ± 1.1
10,SWKDYHN,inactive
11,NRSMSISGMTGYEQLKRHGT,0.023 ± 0.27
12,VHCDYVIELGPGWWVRNWGS,0.42 ± 0.54
13,CARMGASLWI,0.214 ± 0.65
14,AFSLCFRYYLPRVNASG,-0.147 ± 1.1
15,VGGWGWGHCPQRRQHVSLPV,0.825 ± 0.53
16,LSSTFLNFA,inactive
17,WLYSIDYNFLKRVIGYCYRN,inactive
18,IQCTCTPDYPVLSLSVMVNF,8.361 ± 0.078
19,RTAINESCQDEMG,5.44 ± 0.073
20,GIIRSWNIRPLEMPKE,0.176 ± 0.27
21,EIHCPMITMISVGRDSMKFN,0.996 ± 0.41
22,FQMYTISLRRLVNNKSYARV,0.319 ± 0.8

row,Substance,amyloid nucleation score
1,VCCFLLHQN,6.88 ± 0.083
2,NVKSYKGQRFVAFGGGSVYA,0.567 ± 0.32
3,PLRNGDGVSFLGSVLSWPQA,-0.294 ± 1.1
4,TTVKYG,0.553 ± 0.22
5,SGERRTGCPEAAS,0.075 ± 0.34
6,ESDSWNVVITDM,-0.371 ± 0.64
7,GRMLKFLCWRWVVLMSGAPG,inactive
8,IFHCGLLRALRFSSHLYWVG,0.505 ± 0.51
9,NAYFMLEILRTKWTQDSTER,-0.99 ± 0.78
10,HSSIIKSVAWAFNYDA,0.159 ± 0.42
11,SYIHRAWAYM,inactive
12,LSFSNPWFMIKSRDMFVCIG,0.792 ± 0.8
13,RHLDSDPRIRKPHFGDPVNT,-0.144 ± 0.55
14,YKMPK,0.443 ± 0.8
15,QLTRTVIYCLLFSAFHFYIS,2.39 ± 0.22
16,VFVMKMPWQSLISNLIFTSM,1.23 ± 0.2
17,THSHTSCKDASSEMRSPCNV,0.264 ± 0.33
18,ASAAYWASVHICPNLSKRKL,0.328 ± 0.65
19,SRICMKWDSSNLWSF,inactive
20,TKYDLHPMIVSFECDRHLMW,0.411 ± 0.49
21,CKHDCETWWCSY,3.48 ± 0.058
22,GFSSNLVVLKKPS,-0.249 ± 1.1

row,Substance,amyloid nucleation score
1,VRGAVSLL,-0.64 ± 0.29
2,WHLCFISHTLRGMRTLWSIR,-0.829 ± 1.1
3,HSNALCLRFVLLPLSGIDIM,-0.295 ± 0.54
4,NRAFLMSYAPRRHFGAMSKA,3.51 ± 0.073
5,DFLSVYSYIKWWAA,-0.886 ± 0.49
6,VVYSSSFVAGLYDSMCWMWG,1.49 ± 0.24
7,GSLHVNGVVHVSDCHVTY,1.34 ± 0.53
8,TFLSHEGRGLRCLYYHMMPG,3.79 ± 0.14
9,GVDFTWDRGCIGGRGCSSRY,5.956 ± 0.054
10,RYLSLVFVYIVGVLYSSCDV,0.383 ± 0.14
11,CSNGLYPNTVGRLEYS,-1.05 ± 0.39
12,FEAINMSQQCIYCFPMSRNI,7.388 ± 0.053
13,TFHGFMCGQTLRGPFRLSWW,3.95 ± 0.088
14,SLYCGGQMLD,inactive
15,SFVMYRNSGRVCGMRVASEW,0.766 ± 0.22
16,AVDAVGSLMKRALRLRSMFG,1.12 ± 0.44
17,KLPFELKSDDFTCFNWANSR,-0.097 ± 1.1
18,KGAFANL,-1.63 ± 0.55
19,YMYILAVLSVSSLIVNYDLK,inactive
20,HRYISNISKYESKNWRVPVG,inactive
21,TNDHQFCESNMRVMSEGIGP,-0.284 ± 1.1
22,ALGSRSTDSGSWITNFLSSR,-0.213 ± 0.79

row,Substance,amyloid nucleation score
1,KALQNSDGVGTRNLQTRHGY,1.75 ± 0.29
2,HTDLTSKFFYLNWCGLSLLR,3.39 ± 0.072
3,YSIKQAY,inactive
4,FDNRNVSVSYPYNKMGNRVM,2.57 ± 0.069
5,IHLHYNVDNCTFELLK,-0.499 ± 0.26
6,NCKWCNT,0.996 ± 0.29
7,YRRSPFETSGLQSCYCGSIG,-0.003 ± 1.1
8,SSRTPNYA,inactive
9,WGFTLWKLWRV,0.676 ± 0.15
10,VLSYSVFTLRLATKIVP,-0.337 ± 1.1
11,NFFVFYIR,7.06 ± 0.072
12,SKVLNGFYIWYHQVPQLYPL,-1.19 ± 1
13,RLLTSHD,4.12 ± 0.089
14,RSCATFIFVMS,4.98 ± 0.073
15,LCPYYNLWS,inactive
16,WDGNYSSKVCFTQLRMSWCL,1.75 ± 0.27
17,WVYDVQSCIMTPMSGYWFIL,-0.476 ± 0.36
18,IPMPSCVQYYSVDYRWASLL,-1.27 ± 0.44
19,NFVIQ,0.011 ± 0.56
